Experimental data reported in patent US20260217860A1.

Legend:
[1] = biological target: monkey EGFR on CHO-S-fasEGFR cells (monkey) (UniProt P55245); test: flow cytometry, transfected CHO-S cells
[2] = biological target: monkey (Macaca fascicularis) MUC1 on CHO-S-fasMUC1 cells (monkey (Macaca fascicularis)); test: flow cytometry, transfected CHO-S cells
[3] = biological target: human MUC1 (484 amino acids) on CHO-S-hMUC1 (484AA) cells (human) (UniProt P15941); test: flow cytometry, transfected CHO-S cells
[4] = biological target: human EGFR on CHO-S-hEGFR cells (human) (UniProt P00533); test: flow cytometry, transfected CHO-S cells
[5] = biological target: monkey EGFR on CHO-S-fasEGFR cells (monkey) (UniProt P55245); test: flow cytometry, transfected CHO-S cells, secondary antibody only
[6] = biological target: monkey (Macaca fascicularis) MUC1 on CHO-S-fasMUC1 cells (monkey (Macaca fascicularis)); test: as above
[7] = biological target: human MUC1 (484 amino acids) on CHO-S-hMUC1 (484AA) cells (human) (UniProt P15941); test: as above
[8] = biological target: human EGFR on CHO-S-hEGFR cells (human) (UniProt P00533); test: as above

Chain of monkey (Macaca fascicularis) MUC1 on CHO-S-fasMUC1 cells (monkey (Macaca fascicularis)) (chain, as listed by the source): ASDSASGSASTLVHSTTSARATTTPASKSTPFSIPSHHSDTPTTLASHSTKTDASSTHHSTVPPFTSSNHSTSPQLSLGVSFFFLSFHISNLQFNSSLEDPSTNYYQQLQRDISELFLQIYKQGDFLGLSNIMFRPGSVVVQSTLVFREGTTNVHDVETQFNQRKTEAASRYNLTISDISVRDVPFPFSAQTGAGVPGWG

Substance: isotype control (ISO), an antibody targeting an irrelevant target protein
- Percentage of Positive Cells (%) [1]: 0.58%
- Percentage of Positive Cells (%) [2]: 1.15%
- Percentage of Positive Cells (%) [3]: 4.05%
- Percentage of Positive Cells (%) [4]: 0.7%

Substance: secondary antibody anti-hIgG-Fc-Alex Flour 647 (RLI-H) (Jackson ImmunoResearch Laboratories, Inc., Cat #: 109-606-170)
- Percentage of Positive Cells (%) [5]: 0.19%
- Percentage of Positive Cells (%) [6]: 0.91%
- Percentage of Positive Cells (%) [7]: 2%
- Percentage of Positive Cells (%) [8]: 0.66%
